Values of other authors, collected in paper doi:10.1101/2023.08.17.553741.
pKd: −log10 of the molar value.

Target: SARS-CoV-2 spike protein (target of cited Kd) (SARS-CoV-2) (UniProt P0DTC2)
Conditions: 3' thiol C3, […] (temperature not stated), PBS 1X

TTCCGGTTAATTTATGCTCTACCCGTCCACCTACCGGAATTTTTTTTTTTTTTTTTTTTACGGGTTTGGCGTCGGGCCTGGCGGGGGGATAGTGCGGT [dimeric aptamer (S1-20T-S2-thiolC3)]
pKd: 9.77
